In the domain aggregation screens of Martell et al. (2025):

assay: soluble fraction after stress (log2 fold change); higher = more stays soluble; pooled small domains, quantitative proteomics; settings: stress: 50 degC
How it was run: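 The stress applied to every library was 50°C. These custom libraries of small protein domains were pooled and measured at high throughput with quantitative proteomics as the read-out. Aggregation propensity is expressed as the base-two logarithm of the fold change in how much of each protein remains soluble. The higher the value, the more of that protein stays in solution.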

Sequence | soluble fraction (log2)
HMTTAASIGRLVRDARKQRGLTQHELASLLSTSQSAIHRIESGNQNLSLEMINRIAQALESPLIVPGG | -0.163
HMQVPVNVSMEILDWVIAHIKIDALPNQIREYLNLWVNGEKEPTFNQVEKVSKATGIPLGYFFLQTPPIED | -1.66
HMQDTIDLVIQVNGKLRGQMNVPKDTDRATIEQLAINLENVQKIVAGNAIKKIIIVPGRLINIVVSKNL | -0.925
HMDAKIEYTMSDLIENRLINSDDASMRREKLSEILKIGYGNGKKTLHKLNSFGITREEFEEAMKEVNSH | 0.0697
HMAKDSQSADVLQAIFDGSKVLNGLALDQDMRWDLINGLVMSGRLGVEAIEAEAAKLAKLVEELEFR | -0.892
HMEDIVDLVVEPEAAGRRLDAWLASRIERLSRSRIKALIESGHVAIGGATIVEAKKPVNSGDVVQLSVPEG | 0.0215
HMNTFDLSKLEEIILASRDKAMKTKEFTELDNLKNLFITAGLDVQMSKNGIKLIKGPKFNSSLLEDF | -0.655
HMRKIKDVLRLKLHAGLSHERVAASLNISKGVVAKYTSLAAAAGLDWPTVERLSEAALERRLV | -0.135
HMPLTPATADAGRFVKQDRKYIRLLAKRYNFTHGDIKSEIDRVSAVLSSNGIDRVPLFLYKEYLEQYLAG | -1.85
HMKRIDTILETFAKVHKHIPSKLILLGDGPELLDMRKIARSLHIEDDVLFLGKQDQVSKFYQMADLVLLL | -0.0419
HMVRKIRARLVLQLRAEGLSGRAIAGSQGMSRKSVTAVLDAADRAGIGWDEIAERSEGEVYALLFPGRG | -1.34
HMLNMSVYDKQLLRAVENNPFISQRELARELHWNVDRVKYYMKKWKDKGGLRHVGSSHKGYWEVLVRIEEK | -0.886
HMEHDYGLSGREREVLELMVQGLVKKEIADRLALSYHTVDNHLRSIYAKLQVHTRGGAVAKALSEHLVPP | 0.217
HMQNYTTIIGVIELRLNDISYDNVRKRYHIGRSGITLIMDRYRDSGLSLEDLKQMTPEKVVDLFYPR | -2.3
HMDSIKDQIYQILKEDILTGELRSGEQLVEQTIAARFNTSRSPVREAIKQLTGDGLVINITNKGTFVK | 0.168
HMEEFAGYINGQPYYGPTHQHRGVKMVGAEHTQRPHPLVWDSVAKSLDNYDNRFQWVNGNLLQVV | 0.0306
HMGAKVFTVPNLIGKYAIEAGIILKKEGLSEGEVKEENSDKYAAGQIIDQYPAADSPAKENDKINYVVSIG | 0.00836
HMKRITKKELKQAIVDVFADKPGQSFNYKQLATIIGIKDDPTRRMITDILYELVQEERIVELYRGKFKMEM | -0.66
HMDGMNEELYQKFFALVGNPDEGKRISQAKAAQALGYSSAVVSAYKNRTYNGNIKAFEDAVQAWLKREERR | 0.000413
HMAWIGEHTVTSEDTLSHIALKFYGHATPPYYKLIYEANKAIIGDNMNIIVPGQVLRIPALPEEL | -0.345
HMSAATGIINTDNVNIRSGPATTYDAVGRLNQGSSVEILSSRNDWYQIQANSLKGWVRNDLLNVQK | 0.0404
HMPASDPNEKQILRFLTEHQVITRKETQALLDVSQSTAGRVLKAMVDNGQIKQLGGSRNTRYELPM | -0.183
HMNQYALTDREKNVLGLLVDGLSYKMIADKENISFHTVNAHVRKIYEKLHVHSLAEAVSKALKENL | -1.29

Sequence | soluble fraction (log2)
HMDDSPTARALRTLDLIHNRPGITAAELADRLGVTERAVRRYVLTLRDAGVPVLGTPGRYGGYQVGK | -0.426
HMETTEELISKTVPISYADMAALTGILDGVKSARGDIQVDDRTSTIIIHDIQSSIDEMMRLIKILD | -0.999
HMGNKDAQLVHLAKMNEIQIELMKTGRGYMVTDQNVYNLAKKMGENMGFKHPDLFLTDPAKV | -0.0553
HMSDIDIDVENDRAALAIAGGKLNHLVGARGEVLDALQELTRLAVQTSLGERSRLMLDIDNFRSD | -0.00224
HMKVSFEIEINGVTKSINSINEAKEAISELQDIMDNSTFGSEEFKNAATQIDKLQNKLVEALDK | -0.0374
HMELVEVGDLTGLTVEQAENVLKNSNISISIDKYDESDKYEKDQIISQNPQNKKVKKGTAIHVVLSNGP | 0.0285
HMRKIKEVLRLKFETGFSHERIAAAVGVSKGAVTKYVQRAVAAGLGWPLAPERDDAALEALLFPH | ≥ 0.62
HMGKDLLGYEVFAESGDLVGILKDVMWLPHSDVYVITKGGKEFLIPVIPEVVKGINHEQGVIVISPMEGLL | -0.0165
HMKKPIYLTIANDIEKKIFNNDYPKNERLPSERNLAEEYGVTRMTIRNSIEYLVSKGLLEKRLGSGNYVKR | -0.646
HMGKTEETLQMEKLVEALRRSGRMKYEDAYRIVYAAFPDAKDFEGMLSGAIRAGFIELQMGNDGAFLRAL | -0.172
HMNKITIDQAKEIALNHAKLTAEQVSFIRTESEFDDGIEKYNIEFYYNNQKYDYDINAVNGQIIQYDLEG | -0.0582
HMKSNESAELGERMLNKALLALHTDSSKISDTQWQKLLRDYGAKNKQEILTDIGLGKRLNVMVAHQLMAMG | -0.0795
HMPNILLSVKDASVAISVSSKMVRLLIASGRLKAVNLGKRMTRISLQELTDFAQRQGGNVVLP | -0.147
HMEDIEEVIVEIDTVLRTHFDRGRTEVLFAEIETAGGRPFMTYLALLFMAHRGSVRLQQDDLFGDLWVKDP | -0.0374
HMRTAFPQLTERELEILDLIAAGRNNAQIASALYLAPKTVRNNVSNILAKLQATDRAEAIIRARDAGLGG | -0.0599
HMDKESQTMFRLLTGVSGVGPKVGLAILSVLSPDRVVLAISAGDHKAFTAASGVGPKLGQRIVLELKDKVG | -3.12
HMDLTIEQTTVLGKRLFSNALNSLGKKQRNIKKDAIESLLKRMNLKDMDQLYESIGIGDKSPLLMAQILL | -0.0296
HMKLSIEDLAAELIRKIEAGDIGNEQGKMPSERELLAIYPVSRYTLRQALNKLSKMGWIYQMQGRGSYIRF | -1.35
HMGEPVEIEEPITVRSLSEALGLKSSAIISHLMRQGVFATINQNLDKETAELIAAEYGIELRIK | 0.00995
HMSEYILATNDGEFLRITSYSKEEGGMLVWEKTSSIVSAEHKVIPYSQIINIKDRNGDVVWDKD | -0.346
HMRYTAAEMAKKLDISRSYLYYLKEAGVVEIEKNENGKPIWTESVYNQLFEYIKKNHRTEEADNTQ | -0.578
HMQTYTYYIAKNDISIGQKITPDMLIEKQVNLGDSKDRYLSREQLETGKYIAVRQIPAGELISSASANE | 0.157
HMRKGDDRLRAQVDEYISKQGNNTFNYKQVAHAINATSPISQRAVALYLAELAFDGDLLETAPGRYKSPSR | 0.0382

Sequence | soluble fraction (log2)
HMDYKLDVNFPEMYLEQIPAEKRAALIQILEQDPRPSYQKDPVRIYGMSYAGMEIHFRVDKETLYVTEVER | -0.996
HMSASSTAPGSVTLRGAILTAWTAAGGERSKMGLPVGYEVRQADGTVTQTFEKGRISVSPTGTATI | 0.0647
HMNAVITTQKAKQIALAHAGLSEADVNYVKAELENDDGVQVYDIEFYSKNIEYDYDINAVTGEIMSFDHDI | -0.47
HMGGPEVLELEDVKVGSPGPDEIKVTNHAIGLNYIDTYHRSGLYPLKLPSGIGLEAAGKVEEIGSNV | 0.0604
HMNSKKETLLSYLYNHSTWSSRNDLSNFLNVSTRQVTNYINEINKNETIVLSSNKGYKINPKFIGKN | -0.611
HMGIVYGVIKENWDQDHPGMVKVEILQGESGKNVSDWIPVMSPYAGKEFGAYALPEIGTQAVVAFE | -0.0355
HMVSPLEKSQSFGSFEISREFARTLGLTSARNWENWAASDSRPINIPYSPNVFYKNKGWIDWSDWLGTE | -0.286
HMIDNKIIRSLRQKRNMTLEELAKKANISVSYLSEIELGKKQPSLETINKLSQALNISREGLI | -0.0409
HMTSPELIELGERIRKRRQEMNLSQEALAEKAGISINTVSRVEGGQTAMSIEIFRKMIEILETDANGL | -0.212
HMEEDDGVDFHERLTELNDEQVYYLINTEPAKVIALALDQLGQKRKINIMNRFNPDMKHSIIMELGKL | -0.516
HMSTEEYDRGYEQGLEEAAKADDAWVANLIKIYSQNTPESMPETMKGRLDAFLYEQQRRAQSVPEM | 0.307
HMDFGPDSAAPLADGSAPEGFDVKGNADSMLYHEPDGRWYDATVAEVWFRTAEAAQAAGFTKAGS | -0.0829
HMFPTLSPEEQRIVDQLAKENDLQANVIALRTALTIPQISALLFSLEMKGMVRLYAGGTYHLI | -2.81
HMETENLSPREREILEYIVKGYSYKMIAADLNIATETVRSHIKKIYKKLQVNSATEAVYKYSN | -0.322
HMEREQNILQGREVVERELRRLGLAEAYTVSDIAKALKFDDEEQFLAKVGFGDIQSRQISGAIALMEKN | 0.0472
HMPGRLSRREVEVIELTARGLPAAEMAVRLGISANTIEFHRRRIMQKLGVANAAEMVRRATELGW | -2.1
HMASALDFGRYVRSQYSLQEFPLILIAPLNDPHPKEVVRELFNLYLTKPITRSRLFDSLMTVLG | -0.753
HMILALAISSEEDDARIYATYADRLREAYPASARVFEGMVDEEHEHRRRLIDLFQRRFGDTIPLVRREHV | -0.61
HMKQIEEIIARYTNENTPLMMILSDVQREYGYIPLDVQELISEKTGIPVAEIYGVVTFYSFFSL | -0.572
HMHNQIGDKIRELRTRSNLTQADLGKLVGVSMQAVSKWERGGTPDIDVLLSVAKYFNISLDEMVGRT | -1.08
HMGTRHPLPYAFAKAHTVLLEDDGDRLLLHAAENSGPSALGEILRLYDVDALERETASTLANRIAVAYAG | 0.00932
HMDTAEQNWRLRGKLVTLGLNARQIRMALASHAPRYLEDNIAVVERDLAAGKVRNLPAYLLAALREDYRP | -1.67
